Assay results taken from patent publication US20090136475A1 (FRAUNHOFER GESELLSCHAFT ZUR FORDERUNG DER ANGEWANDTEN …, published 2009).

How the values were obtained:
[1] = molecular target: CD30 molecule on the Hodgkin-derived CD30-positive cell line L540Cy (UniProt P28908); test: cell-based or functional assay
[2] = molecular target: T1, CD30 molecule on the Hodgkin-derived CD30-positive cell line L540Cy (UniProt P28908 19-595, limits assumed); test: flow cytometry on L540Cy cells, detection by anti-penta-His and FITC goat-anti-mouse IgG
T1 construct: whole, on cells; the cell lines are human-derived; also called CD30-positive cells
T1 sequence (looked up): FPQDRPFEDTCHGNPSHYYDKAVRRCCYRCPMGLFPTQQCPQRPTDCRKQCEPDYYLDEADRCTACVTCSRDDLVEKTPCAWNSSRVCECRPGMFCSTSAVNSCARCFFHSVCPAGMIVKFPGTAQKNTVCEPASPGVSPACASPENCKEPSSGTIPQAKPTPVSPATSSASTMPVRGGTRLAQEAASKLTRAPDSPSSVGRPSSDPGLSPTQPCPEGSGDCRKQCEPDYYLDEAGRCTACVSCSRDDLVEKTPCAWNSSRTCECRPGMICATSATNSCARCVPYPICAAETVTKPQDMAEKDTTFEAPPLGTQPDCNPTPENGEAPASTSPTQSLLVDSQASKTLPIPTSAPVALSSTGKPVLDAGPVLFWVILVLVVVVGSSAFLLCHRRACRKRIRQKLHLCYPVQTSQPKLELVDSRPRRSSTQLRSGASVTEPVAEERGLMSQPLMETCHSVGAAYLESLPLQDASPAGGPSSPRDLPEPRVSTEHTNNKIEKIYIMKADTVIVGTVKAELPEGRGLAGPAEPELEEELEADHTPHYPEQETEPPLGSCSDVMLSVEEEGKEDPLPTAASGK
Procedure: Cell binding activity of the recombinant complexes (immunokinases) expressed in E. coli BL21 Star™ (DE3) was evaluated using a FACSCalibur flow cytometry instrument and CellQuest software (Becton Dickinson, Heidelberg, Germany). Cells were stained with recombinant protein as described (25). Briefly, ten thousand events were collected for each sample, and analyses of Intact cells were performed using appropriate scatter gates to exclude cellular debris and aggregates. 5×10⁵ cells were incubated for 1 h on ice with 50 μl of bacterial protein extract at a concentration of 30-40 μg/ml or 100 μl of the immunokuinase containing supernatants respectively. The cells were washed with PBS buffer containing 0.2% w/v BSA and 0.05% w/v sodium azide (PBA) and then incubated for 30 min with anti-penta-His moab (Qiagen) diluted 1:2 in PBA buffer. Cells were washed and incubated with fluorescein-iso-thiocyanate (FITC)-labeled goat-anti-mouse IgG (DAKO Diagnostica, Hamburg, Germany) for 1 h at 4° C. After a final wash, the cells were treated with 2 μl 6.25 mg/ml propidiumiodide and subsequently analyzed on a FACScalibur (Becton Dickison, Heidelberg, Germany).

Row | Molecule | calculated median IC50, growth inhibition of L540Cy cells, XTT-based colorimetric assay [1] [mg/L] | binding result [2]
1 | recombinant complex (immunokinase) pMS-(L-DAPk2-Ki-4)-III/G, protein L-DAPk2-Ki-4-MH | 0.004 to 0.035 | –
2 | recombinant complex (immunokinase) pMT-Ki-4(scFv)-eEF-2K (other, Single-chain fusion: pelB signal peptide, enterokinase-cleavable His10 tag, anti-CD30 Ki-4 scFv, eukaryotic elongation factor-2 kinase; It was expressed in the periplasm of E. coli BL21 Star (DE3) and purified by IMAC and SEC) MGHHHHHHHHHHSSGHIDDDDKHMKLMAQPAMAQVKLQESGTELAKPGAAVKMSCKASGYTFTDYWMHWVKQRPGQGLEWIGYINPNTAYTDYNQKFKDKATLTADKSSSTAYMQLRSLTSEDSAVYYCAKKTTQTTWGFPFWGQGTTVTVSSGGGGSGGGGSGGGGSDIVLTQSPKSMAMSVGERVTLSCKASENVDSFVSWYQQKPGQSPKLLIYGASNRYTGVPDRFAGSGSGRDFTLTISSVQAEDLADYHCGQNYRYPLTFGAGTKLEIKRAAAELGGGGSMADEDLIFRLEGVDGGQSPRAGHDGDSDGDSDDEEGYFICPITDDPSSNQNVNSKVNKYYSNLTKSERYSSSGSPANSFHFKEAWKHAIQKAKHMPDPWAEFHLEDIATERATRHRYNAVTGEWLDDEVLIKMASQPFGRGAMRECFRTKKLSNFLHAQQWKGASNYVAKRYIEPVDRDVYFEDVRLQMEAKLWGEEYNRHKPPKQVDIMQMCIIELKDRPGKPLFHLEHYIEGKYIKYNSNSGFVRDDNIRLTPQAFSHFTFERSGHQLIVVDIQGVGDLYTDPQIHTETGTDFGDGNLGVRGMALFFYSHACNRICESMGLAPFDLSPRERDAVNQNTKLLQSAKTILRGTEEKCGSPRVRTLSGSRPPLLRPLSENSGDENMSDVTFDSLPSSPSSATPHSQKLDHLHWPVFSDLDNMASRDHDHLDNHRESENSGDSGYPSEKRGELDDPEPREHGHSYSNRKYESDEDSLGSSGRVCVEKWNLLNSSRLHLPRASAVALEVQRLNALDLEKKIGKSILGKVHLAMVRYHEGGRFCEKGEEWDQESAVFHLEHAANLGELEAIVGLGLMYSQLPHHILADVSLKETEENKTKGFDYLLKAAEAGDRQSMILVARAFDSGQNLSPDRCQDWLEALHWYNTALEMTDCDEGGEYDGMQDEPRYMMLAREAEMLFTGGYGLEKDPQRSGDLYTQAAEAAMEAMKGRLANQYYQKAEEAWAQMEE | – | binds
